Experimental data from patent publication US9719067B2, “Generation of anterior foregut endoderm from pluripotent cells” (Mount Sinai School of Medicine, priority 2010, dated 2017).

Legend:
Format in all cases: cell-based, human
[1] = tested on: ventralized AFE; assay: Induction of lung and parathyroid markers from ventralized AFE
Method: (§1) Mouse embryonic fibroblasts were depleted by a 24 h passage on Ma gel (Gibco) with Y-27632 (10 μM), and embryoid bodies were formed on low-adherence dishes (Costar). During embryoid body formation and differentiation, HES2 cells were reseeded at the same concentration (1:1 dilution), whereas HDF2 and HDF9 required a higher seeding (2:1-4:1 concentration) for efficient endoderm generation. Differentiations were performed in a medium of DMEM/F12 (Invitrogen) supplemented with N2 (Gibco), B27 (Gibco), ascorbic acid (50 μg/ml, Sigma). Glutamax (2 mM, Invitrogen), monothioglycerol ([…], Sigma). The following concentrations of factors were used for primitive streak formation, endoderm induction, anterior/pharyngeal endoderm induction, and subsequent anterior posterior and dorsoventral patterning: human BMP-4, 1 ng/ml and 10 ng/ml; human bFGF, 2.5 ng/ml; human activin A, 100 ng/ml; human Noggin, 200 ng/ml; Y-27632, 1 μM; SB-431542, 10 μM; human FGF10, 10 ng/ml; human FGF7, 10 ng/ml; murine EGF 20 ng/ml; and human WNT3a, 100 ng/ml. Hepatic conditions were as previously described 2 and contain BMP-4, 50 ng/ml; bFGF, 10 ng/ml; VEGF, 10 ng/ml; HGF, 10 ng/ml; TGFα, 20 ng/ml; dexamethasone, 40 ng/ml. All factors were purchased from R&D systems, except SB-431542 and Y-27632, which are from Tocris, and dexamethasone (Sigma). […]
(§2) Total RNA was extracted using Trizol (Invitrogen), phase lock tubes (5′ Prime) and the RNeasy kit (Qiagen). […] Amplified material was detected using SybrGreen (Invitrogen). Real-time quantitative PCR was performed on ABI 7900HT thermocycler (Applied Biosystems), with a 10-min step at 95° C. followed by 40 cycles of 95° C. for 15 s and 60° C. for 1 min. All experiments were done in triplicate with SYBR GreenER quantitative PCR SuperMix (Invitrogen). […] Absolute quantification was obtained in relation to a standard curve of genomic DNA dilution series. Quantified values for the gene of interest were normalized against input determined by the housekeeping genes GAPDH and β-ACTIN, qPCR for each culture well was performed in triplicate.

[2] = tested on: hES cell line HES2; assay: Activin A induction of definitive endoderm from hES cells (flow cytometry, cell number); settings: after 4 d of exposure to activin A
Method: hESC (HES2, National Institutes of Health code ES02 from ES Cell International; passages 25-33) were cultured on mouse embryonic fibroblasts plated at 8,000-12,000 cells/cm^2, A medium of DMEM/F12, 20% knockout serum replacement (Gibco), 0.1 mM β-mercaptoethanol (Sigma-Aldrich), and 20 ng/ml FGF-2 (R&D) was changed daily. Cells were passaged with trypsin, washed and replated at a dilution of 1:5 to 1:10. HDF2 and HDF9, hiPS cell lines, were cultured as hES2. hES and hiPS cultures were maintained in a 5% CO2/air environment, and hES differentiations were maintained in a 5% CO2/5% O2/90% N2 environment.
Mouse embryonic fibroblasts were depleted by a 24 h passage on Ma gel (Gibco) with Y-27632 (10 μM), and embryoid bodies were formed on low-adherence dishes (Costar). During embryoid body formation and differentiation, HES2 cells were reseeded at the same concentration (1:1 dilution), whereas HDF2 and HDF9 required a higher seeding (2:1-4:1 concentration) for efficient endoderm generation. Differentiations were performed in a medium of DMEM/F12 (Invitrogen) supplemented with N2 (Gibco), B27 (Gibco), ascorbic acid (50 μg/ml, Sigma). Glutamax (2 mM, Invitrogen), monothioglycerol (0.4 μM, Sigma). […]
Day 5 embryoid bodies or day 13 monolayer cultures were dissociated with trypsin/EDTA (2 min). […] Cells were analyzed on a LSRII. […]

[3] = tested on: activin A-induced definitive endoderm (HES2); assay: Anteriorization of activin A-induced definitive endoderm, factors added at day 5, marker mRNA by quantitative PCR at day 9
Method: as §1
as §2, with “triplicate. […]” for “triplicate.”

[4] = retinoic acid added to the WKFBE cocktail
[5] = mRNA at day 9, factors added at day 5

Molecule: CC1=C(/C=C/C(C)=C/C=C/C(C)=C/C(=O)O)C(C)(C)CCC1 [retinoic acid, all-trans retinoic acid]
- expression of FOXP2, NKX2.1, GATA6 and FOXJ1 [1, 4]: increased
- expression of the pharyngeal pouch marker PAX1 [1, 4]: decreased

B1: activin A: human activin A, soluble cytokine activating the same receptor as nodal; 100 ng/ml (protein, UniProt P08476 311-426, looked up)
Inhibin beta A chain: GLECDGKVNICCKKQFFVSFKDIGWNDWIIAPSGYHANYCEGECPSHIAGTSGSSLSFHSTVINHYRMRGHSPFANLKSCCVPTKLRPMSMLYYDDGQNIIKKDIQNMIVEECGCS
modifications: Inhibin beta A chain
notes: 100 ng/ml
- cells expressing the definitive endoderm markers CXCR4, c-KIT and EPCAM [2]: > 95%

B2: WNT3a: human WNT3a, agonist of canonical Wnt signaling; 100 ng/ml (protein, UniProt P56704 19-352, looked up)
Protein Wnt-3a: SYPIWWSLAVGPQYSSLGSQPILCASIPGLVPKQLRFCRNYVEIMPSVAEGIKIGIQECQHQFRGRRWNCTTVHDSLAIFGPVLDKATRESAFVHAIASAGVAFAVTRSCAEGTAAICGCSSRHQGSPGKGWKWGGCSEDIEFGGMVSREFADARENRPDARSAMNRHNNEAGRQAIASHMHLKCKCHGLSGSCEVKTCWWSQPDFRAIGDFLKDKYDSASEMVVEKHRESRGWVETLRPRYTYFKVPTERDLVYYEASPNFCEPNPETGSFGTRDRTCNVSSHGIDGCDLLCCGRGHNARAERRREKCRCVFHWCCYVSCQECTRVYDVHTCK
- CDX2 expression [3, 5]: increased

B3: sFRP3: soluble Frizzled-related protein 3, WNT antagonist (protein, UniProt Q92765 33-325, looked up)
Secreted frizzled-related …: AACEPVRIPLCKSLPWNMTKMPNHLHHSTQANAILAIEQFEGLLGTHCSPDLLFFLCAMYAPICTIDFQHEPIKPCKSVCERARQGCEPILIKYRHSWPENLACEELPVYDRGVCISPEAIVTADGADFPMDSSNGNCRGASSERCKCKPIRATQKTYFRNNYNYVIRAKVKEIKTKCHDVTAVVEVKEILKSSLVNIPRDTVNLYTSSGCLCPPLNVNEEYIIMGYEDEERSRLLLVEGSIAEKWKDRLGKKVKRWDMKLRHLGLSKSDSSNSDSTQSQKSGRNSNPRQARN
- induction of PAX9 and SOX2 when added to NOGGIN/SB-431542 ([3]; day 9, sFRP3 added with NOGGIN/SB-431542): detrimental
- SOX2 expression [3, 5]: not sufficient

B4: FGF8: fibroblast growth factor 8, agonist of FGF signaling (protein, UniProt P55075 23-233, looked up)
Fibroblast growth factor 8: QEGPGRGPALGRELASLFRAGREPQGVSQQHVREQSLVTDQLSRRLIRTYQLYSRTSGKHVQVLANKRINAMAEDGDPFAKLIVETDTFGSRVRVRGAETGLYICMNKKGKLIAKSNGKGKDCVFTEIVLENNYTALQNAKYEGWYMAFTRKGRPRKGSKTRQHQREVHFMKRLPRGHHTTEQSLRFEFLNYPPFTRSLRGSQRTWAPEPR
- parathyroid-specific marker GCM2 ([1]; AFE ventralized with WKFBE in the absence of retinoic acid): induced
